In assay [1] the target is GST-tagged ctSac3N^(1-210) (Chaetomium thermophilum) (UniProt G0SGL4). The assay is described as follows: SPR; GST-tagged ligands captured by anti-GST antibody on CM5 chip; ctMex67:Mtr2 injected at 0.11-10 μM for 120 s, dissociation 600 s; BIAcore T200, 30 μl/min, 25°C, 20 mM Na-HEPES pH 7.5, 400 mM NaCl, 2 mM MgCl2, 5% glycerol, 0.01% NP-40; double exponential fits. A general note: In SPR one partner is held on a chip, and binding of the other changes the refractive index at the surface.

Assay [2] concerns the target GST-tagged ctMlp1^(1797-1960) (Chaetomium thermophilum). The description is as above.
Assay [3] deals with GST-tagged ctNup145^(213-567) (Chaetomium thermophilum). Described as above.
For assay [4], the target named is T1, C. thermophilum TREX-2 CID region complex (ctSac3^CID:ctSus1:ctCdc31) (Chaetomium thermophilum, UniProt G0SGL4 1086-1170; G0S6Y1 1-168; G0SAR7 1-177).
T1 construct: as m1; Sus1, Chaetomium thermophilum, locus CTHT_0027270; as m2; as m3; Used here for the SPR of 'the ctSac3 CID region' with Sac3N; also called ctSac3 CID region; CID region of TREX-2; source: E. coli, co-expressed, purified (GSH, TEV cleavage, size-exclusion chromatography); copies: 1 + 1 + 1
T1 sequence 1: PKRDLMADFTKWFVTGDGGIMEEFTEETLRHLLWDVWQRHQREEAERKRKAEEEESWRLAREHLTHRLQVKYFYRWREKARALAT
T1 sequence 2: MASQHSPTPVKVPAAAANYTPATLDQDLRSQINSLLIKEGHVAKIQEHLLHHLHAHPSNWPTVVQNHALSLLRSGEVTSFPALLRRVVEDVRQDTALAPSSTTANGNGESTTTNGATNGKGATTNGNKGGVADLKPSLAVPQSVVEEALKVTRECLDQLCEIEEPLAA
T1 sequence 3: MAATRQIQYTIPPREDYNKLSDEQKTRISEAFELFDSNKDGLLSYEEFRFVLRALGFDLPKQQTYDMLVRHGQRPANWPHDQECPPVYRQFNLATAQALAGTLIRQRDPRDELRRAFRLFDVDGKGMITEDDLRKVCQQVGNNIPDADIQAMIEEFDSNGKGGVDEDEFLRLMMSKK
The assay is described as follows: SPR; ctSac3 CID region with the Sac3N FG region; who was immobilised is not told in the text (Figure S2); general SPR conditions: BIAcore T200, 25°C, 20 mM Na-HEPES pH 7.5, 400 mM NaCl, 2 mM MgCl2, 5% glycerol, 0.01% NP-40. As to conditions: both partners purified.

Chain of GST-tagged ctMlp1^(1797-1960) (Chaetomium thermophilum) (G0SA56 1797-1960): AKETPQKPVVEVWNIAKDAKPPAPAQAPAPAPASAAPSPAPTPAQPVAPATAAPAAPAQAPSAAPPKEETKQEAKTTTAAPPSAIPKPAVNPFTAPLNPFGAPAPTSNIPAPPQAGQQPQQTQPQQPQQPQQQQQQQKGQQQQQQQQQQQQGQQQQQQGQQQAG

As for ctMex67:Mtr2 complex, in assay [1], the KD1 is 39 nM, the KD2 stood at 148 nM, the koff1 was 0.073 s⁻¹ and the koff2 was 0.0049 s⁻¹. In assay [1], this molecule registered a kon1 of 1.9e+06 M⁻¹ s⁻¹ and a kon2 of 33000 M⁻¹ s⁻¹. In assay [2], this molecule showed a KD1 of 309 nM, a KD2 of 419 nM, a koff1 of 0.071 s⁻¹ and a koff2 of 0.0088 s⁻¹. In assay [2], this molecule displayed a kon1 of 230000 M⁻¹ s⁻¹ and a kon2 of 21000 M⁻¹ s⁻¹. In assay [3], this molecule had a KD1 of 238 nM, a KD2 of 264 nM, a koff1 of 0.071 s⁻¹ and a koff2 of 0.0074 s⁻¹. In assay [3], the kon1 turned out to be 300000 M⁻¹ s⁻¹ and the kon2 worked out at 28000 M⁻¹ s⁻¹.

B1: GST-tagged ctSac3N^(1-210) (domain or fragment, Chaetomium thermophilum, UniProt G0SGL4 1-210, looked up)
chain: MMAPANNPFGAPPAQVNNPFASPAPSNQGSSVFGAPAQSTFGAPSSNNPFGASSAKPSGAPAANPFGAPIKNPFGASAQNAQNKPFGAPTAGNGSSLAAANPFGAASGQTSAFGSTPAGSAPQSKGSSRQPSPAGRQNQSGRQQANLVGAPQGPSGKKRTPSPFDTRQRTQAPSKRAQASEESDSDAMSGRKSKGKGFGGLKSQPPAANK
notes: also called GST-Sac3N; GST-Sac3; source: E. coli (general method), captured on an anti-GST antibody-coated CM5 chip
A word on the Kd: it is the constant that tells how readily two partners part at equilibrium. The low end stands for a tighter complex, the high end for a looser complex. The term koff denotes a measure of how fast the partners let go of each other. A lower koff goes with slow dissociation. Broadly, the kon is the second-order rate constant of association. The low end stands for slow association, the high end for fast association. In assay [4], B1 returned a Kd of 2200 nM, a koff of 0.00052 s⁻¹ and a kon of 235 M⁻¹ s⁻¹.

Source of the values: paper PMC4509546, “Structural Characterization of the Chaetomium thermophilum TREX-2 Complex and its Interaction with the mRNA Nuclear Export Factor Mex67:Mtr2” (Structure(London, England:1993), 2015).
